In patent US20230143604A1, “QW DOSING OF GIP RECEPTOR AGONIST PEPTIDE COMPOUNDS AND USES THEREOF” (TAKEDA PHARMACEUTICAL COMPANY LIMITED, priority 2020, published 2023):
Starred links: 1 amine or outer side, 2 acyl side, 3 side chain; linkers in the order of their positions; H or OH if unused. Non-standard residues stand in square brackets, D forms with d. Groups on a side chain read outwards from the residue. No end group written: not given here. *: point of attachment. C18 diacid = O=C(O)CCCCCCCCCCCCCCCCC(=O)*; C17 diacid = O=C(O)CCCCCCCCCCCCCCCC(=O)*; γGlu = O=C(O)[C@H](CCC(=O)[*:2])N[*:1]; NMeY = CN[C@@H](Cc1ccc(O)cc1)C(=O)O; AEEA = NCCOCCOCC(=O)O; Aib = CC(C)(N)C(=O)O

B1: Compound No. 129 (peptide)
peptide: H-Y[Aib]EGTFISDYSI[Aib]LDKIAQQK([AEEA-AEEA-γGlu-γGlu-C17 diacid])FVEWLLAQRG-OH
SMILES: CC[C@H](C)[C@H](NC(=O)[C@H](CCCCN)NC(=O)[C@H](CC(=O)O)NC(=O)[C@H](CC(C)C)NC(=O)C(C)(C)NC(=O)[C@@H](NC(=O)[C@H](CO)NC(=O)[C@H](Cc1ccc(O)cc1)NC(=O)[C@H](CC(=O)O)NC(=O)[C@H](CO)NC(=O)[C@@H](NC(=O)[C@H](Cc1ccccc1)NC(=O)[C@@H](NC(=O)CNC(=O)[C@H](CCC(=O)O)NC(=O)C(C)(C)NC(=O)[C@@H](N)Cc1ccc(O)cc1)[C@@H](C)O)[C@@H](C)CC)[C@@H](C)CC)C(=O)N[C@@H](C)C(=O)N[C@@H](CCC(N)=O)C(=O)N[C@@H](CCC(N)=O)C(=O)N[C@@H](CCCCNC(=O)COCCOCCNC(=O)COCCOCCNC(=O)CC[C@H](NC(=O)CC[C@H](NC(=O)CCCCCCCCCCCCCCCC(=O)O)C(=O)O)C(=O)O)C(=O)N[C@@H](Cc1ccccc1)C(=O)N[C@H](C(=O)N[C@@H](CCC(=O)O)C(=O)N[C@@H](Cc1c[nH]c2ccccc12)C(=O)N[C@@H](CC(C)C)C(=O)N[C@@H](CC(C)C)C(=O)N[C@@H](C)C(=O)N[C@@H](CCC(N)=O)C(=O)N[C@@H](CCCNC(=N)N)C(=O)NCC(=O)O)C(C)C
B2: Compound No. 136 (peptide)
peptide: [NMeY][Aib]EGTFISDYSIALDR[Aib]K([Gly-Gly-Pro-Ala-Pro-Ala-Pro-γGlu-C18 diacid])Q[Aib]DFVNWLLAQSPG-OH
modifications: N-terminus assumed
SMILES: CC[C@H](C)[C@H](NC(=O)[C@H](CO)NC(=O)[C@H](Cc1ccc(O)cc1)NC(=O)[C@H](CC(=O)O)NC(=O)[C@H](CO)NC(=O)[C@@H](NC(=O)[C@H](Cc1ccccc1)NC(=O)[C@@H](NC(=O)CNC(=O)[C@H](CCC(=O)O)NC(=O)C(C)(C)NC(=O)[C@H](Cc1ccc(O)cc1)NC)[C@@H](C)O)[C@@H](C)CC)C(=O)N[C@@H](C)C(=O)N[C@@H](CC(C)C)C(=O)N[C@@H](CC(=O)O)C(=O)N[C@@H](CCCNC(=N)N)C(=O)NC(C)(C)C(=O)N[C@@H](CCCCNC(=O)CNC(=O)CNC(=O)[C@@H]1CCCN1C(=O)[C@H](C)NC(=O)[C@@H]1CCCN1C(=O)[C@H](C)NC(=O)[C@@H]1CCCN1C(=O)CC[C@H](NC(=O)CCCCCCCCCCCCCCCCC(=O)O)C(=O)O)C(=O)N[C@@H](CCC(N)=O)C(=O)NC(C)(C)C(=O)N[C@@H](CC(=O)O)C(=O)N[C@@H](Cc1ccccc1)C(=O)N[C@H](C(=O)N[C@@H](CC(N)=O)C(=O)N[C@@H](Cc1c[nH]c2ccccc12)C(=O)N[C@@H](CC(C)C)C(=O)N[C@@H](CC(C)C)C(=O)N[C@@H](C)C(=O)N[C@@H](CCC(N)=O)C(=O)N[C@@H](CO)C(=O)N1CCC[C@H]1C(=O)NCC(=O)O)C(C)C
B3: Compound No. 131 (peptide)
peptide: H-Y[Aib]EGTFISDYSIALDK[Aib]AQAK([AEEA-AEEA-γGlu-γGlu-C17 diacid])FVEWLLAQRG-OH
SMILES: CC[C@H](C)[C@H](NC(=O)[C@H](CO)NC(=O)[C@H](Cc1ccc(O)cc1)NC(=O)[C@H](CC(=O)O)NC(=O)[C@H](CO)NC(=O)[C@@H](NC(=O)[C@H](Cc1ccccc1)NC(=O)[C@@H](NC(=O)CNC(=O)[C@H](CCC(=O)O)NC(=O)C(C)(C)NC(=O)[C@@H](N)Cc1ccc(O)cc1)[C@@H](C)O)[C@@H](C)CC)C(=O)N[C@@H](C)C(=O)N[C@@H](CC(C)C)C(=O)N[C@@H](CC(=O)O)C(=O)N[C@@H](CCCCN)C(=O)NC(C)(C)C(=O)N[C@@H](C)C(=O)N[C@@H](CCC(N)=O)C(=O)N[C@@H](C)C(=O)N[C@@H](CCCCNC(=O)COCCOCCNC(=O)COCCOCCNC(=O)CC[C@H](NC(=O)CC[C@H](NC(=O)CCCCCCCCCCCCCCCC(=O)O)C(=O)O)C(=O)O)C(=O)N[C@@H](Cc1ccccc1)C(=O)N[C@H](C(=O)N[C@@H](CCC(=O)O)C(=O)N[C@@H](Cc1c[nH]c2ccccc12)C(=O)N[C@@H](CC(C)C)C(=O)N[C@@H](CC(C)C)C(=O)N[C@@H](C)C(=O)N[C@@H](CCC(N)=O)C(=O)N[C@@H](CCCNC(=N)N)C(=O)NCC(=O)O)C(C)C
B4: Compound No. 127 (peptide)
peptide: [NMeY][Aib]EGTFISDYSI[Aib]LDR[Aib]AQ[Aib]K([AEEA-AEEA-γGlu-γGlu-C17 diacid])FVNWLLAQRG-OH
modifications: N-terminus assumed
SMILES: CC[C@H](C)[C@H](NC(=O)[C@H](Cc1ccccc1)NC(=O)[C@@H](NC(=O)CNC(=O)[C@H](CCC(=O)O)NC(=O)C(C)(C)NC(=O)[C@H](Cc1ccc(O)cc1)NC)[C@@H](C)O)C(=O)N[C@@H](CO)C(=O)N[C@@H](CC(=O)O)C(=O)N[C@@H](Cc1ccc(O)cc1)C(=O)N[C@@H](CO)C(=O)N[C@H](C(=O)NC(C)(C)C(=O)N[C@@H](CC(C)C)C(=O)N[C@@H](CC(=O)O)C(=O)N[C@@H](CCCNC(=N)N)C(=O)NC(C)(C)C(=O)N[C@@H](C)C(=O)N[C@@H](CCC(N)=O)C(=O)NC(C)(C)C(=O)N[C@@H](CCCCNC(=O)COCCOCCNC(=O)COCCOCCNC(=O)CC[C@H](NC(=O)CC[C@H](NC(=O)CCCCCCCCCCCCCCCC(=O)O)C(=O)O)C(=O)O)C(=O)N[C@@H](Cc1ccccc1)C(=O)N[C@H](C(=O)N[C@@H](CC(N)=O)C(=O)N[C@@H](Cc1c[nH]c2ccccc12)C(=O)N[C@@H](CC(C)C)C(=O)N[C@@H](CC(C)C)C(=O)N[C@@H](C)C(=O)N[C@@H](CCC(N)=O)C(=O)N[C@@H](CCCNC(=N)N)C(=O)NCC(=O)O)C(C)C)[C@@H](C)CC
B5: Compound No. 130 (peptide)
peptide: H-Y[Aib]EGTFISDYSIALDK[Aib]AQQK([AEEA-AEEA-γGlu-γGlu-C17 diacid])FVEWLLAQRG-OH
SMILES: CC[C@H](C)[C@H](NC(=O)[C@H](CO)NC(=O)[C@H](Cc1ccc(O)cc1)NC(=O)[C@H](CC(=O)O)NC(=O)[C@H](CO)NC(=O)[C@@H](NC(=O)[C@H](Cc1ccccc1)NC(=O)[C@@H](NC(=O)CNC(=O)[C@H](CCC(=O)O)NC(=O)C(C)(C)NC(=O)[C@@H](N)Cc1ccc(O)cc1)[C@@H](C)O)[C@@H](C)CC)C(=O)N[C@@H](C)C(=O)N[C@@H](CC(C)C)C(=O)N[C@@H](CC(=O)O)C(=O)N[C@@H](CCCCN)C(=O)NC(C)(C)C(=O)N[C@@H](C)C(=O)N[C@@H](CCC(N)=O)C(=O)N[C@@H](CCC(N)=O)C(=O)N[C@@H](CCCCNC(=O)COCCOCCNC(=O)COCCOCCNC(=O)CC[C@H](NC(=O)CC[C@H](NC(=O)CCCCCCCCCCCCCCCC(=O)O)C(=O)O)C(=O)O)C(=O)N[C@@H](Cc1ccccc1)C(=O)N[C@H](C(=O)N[C@@H](CCC(=O)O)C(=O)N[C@@H](Cc1c[nH]c2ccccc12)C(=O)N[C@@H](CC(C)C)C(=O)N[C@@H](CC(C)C)C(=O)N[C@@H](C)C(=O)N[C@@H](CCC(N)=O)C(=O)N[C@@H](CCCNC(=N)N)C(=O)NCC(=O)O)C(C)C

Molecular target: T1, full-length human GIPR with an N-terminal FLAG tag (human, UniProt P48546 22-466)
T1 sequence (looked up): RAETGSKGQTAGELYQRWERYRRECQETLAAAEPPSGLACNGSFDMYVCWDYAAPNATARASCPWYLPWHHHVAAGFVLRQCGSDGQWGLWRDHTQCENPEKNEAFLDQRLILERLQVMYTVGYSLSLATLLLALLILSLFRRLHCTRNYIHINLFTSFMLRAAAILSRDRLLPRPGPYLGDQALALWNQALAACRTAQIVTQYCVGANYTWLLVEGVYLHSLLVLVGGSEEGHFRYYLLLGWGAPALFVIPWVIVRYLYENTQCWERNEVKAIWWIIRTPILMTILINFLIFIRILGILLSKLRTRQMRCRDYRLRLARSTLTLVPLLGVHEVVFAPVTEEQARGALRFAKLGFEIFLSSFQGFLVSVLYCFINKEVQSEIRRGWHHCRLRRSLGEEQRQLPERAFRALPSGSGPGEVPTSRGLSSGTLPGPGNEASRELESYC
Assay: cell-based or functional assay

Binder | Human GIPR cAMP EC50, HEK293T
H-Y[Aib]EGTFISDYSIALDKAAQ[Aib]K([AEEA-AEEA-γGlu-γGlu-C17 diacid])FVEWLLAQRG-OH [Compound No. 133] | 0.0012 nM
B1 | 0.0004 nM
H-Y[Aib]EGTFISDYSIALDKIAQQK([AEEA-AEEA-γGlu-γGlu-C17 diacid])FVEWLLAQRPSSGAPPPS-OH [Compound No. 134] | 0.0006 nM
B2 | 0.0007 nM
H-Y[Aib]EGTFISDYSIALDKIAQ[Aib]K([AEEA-AEEA-γGlu-γGlu-C17 diacid])FVEWLLAQRG-OH [Compound No. 132] | 0.0009 nM
YXEGTFISDYSIXXDRXAQXDFVEWLLAQRG (N-terminus H; Aib at 2,13,17,20; Lys(G5-C18 diacid) at 14; C-terminal OH) [Compound No. 139] | 0.0015 nM
B3 | 0.0004 nM
B4 | 0.0007 nM
YXEGTFISDYSIAXDRXAQXNFVNWLLAQSPSSGAPPPS (N-terminus H; Aib at 2,17,20; Lys(G5-C18 diacid) at 14; C-terminal OH) [Compound No. 138] | 0.0008 nM
[NMeY][Aib]EGTFISDYSIAK([γGlu-γGlu-γGlu-C17 diacid])DR[Aib]AQ[Aib]NFVNWLLAQSPSSGAPPPS-NH2 [Compound No. 12] | 0.0002 nM
H-Y[Aib]EGTFISDYSIALDKIAQRK([AEEA-AEEA-γGlu-γGlu-C17 diacid])FVEWLLAQRPSSGAPPPS-OH [Compound No. 135] | 0.0007 nM
YXEGTFISDYSIAXDRXAQXDFVNWLLAQSPG (N-terminus H; Aib at 2,17,20; Lys(G5-C18 diacid) at 14; C-terminal OH) [Compound No. 128] | 0.0009 nM
B5 | 0.0003 nM

Molecular target: full-length human GLP-1R with an N-terminal FLAG tag (human, UniProt P43220 24-463)
Assay: cell-based or functional assay

Binder | Human GLP1R cAMP EC50, HEK293T
H-Y[Aib]EGTFISDYSIALDKAAQ[Aib]K([AEEA-AEEA-γGlu-γGlu-C17 diacid])FVEWLLAQRG-OH [Compound No. 133] | 58.9 nM
B1 | 115 nM
H-Y[Aib]EGTFISDYSIALDKIAQQK([AEEA-AEEA-γGlu-γGlu-C17 diacid])FVEWLLAQRPSSGAPPPS-OH [Compound No. 134] | 170 nM
B2 | 63.1 nM
H-Y[Aib]EGTFISDYSIALDKIAQ[Aib]K([AEEA-AEEA-γGlu-γGlu-C17 diacid])FVEWLLAQRG-OH [Compound No. 132] | 66.1 nM
YXEGTFISDYSIXXDRXAQXDFVEWLLAQRG (N-terminus H; Aib at 2,13,17,20; Lys(G5-C18 diacid) at 14; C-terminal OH) [Compound No. 139] | 8.91 nM
B3 | 151 nM
B4 | 63.1 nM
YXEGTFISDYSIAXDRXAQXNFVNWLLAQSPSSGAPPPS (N-terminus H; Aib at 2,17,20; Lys(G5-C18 diacid) at 14; C-terminal OH) [Compound No. 138] | 2.04 nM
[NMeY][Aib]EGTFISDYSIAK([γGlu-γGlu-γGlu-C17 diacid])DR[Aib]AQ[Aib]NFVNWLLAQSPSSGAPPPS-NH2 [Compound No. 12] | 955 nM
H-Y[Aib]EGTFISDYSIALDKIAQRK([AEEA-AEEA-γGlu-γGlu-C17 diacid])FVEWLLAQRPSSGAPPPS-OH [Compound No. 135] | 8.32 nM
YXEGTFISDYSIAXDRXAQXDFVNWLLAQSPG (N-terminus H; Aib at 2,17,20; Lys(G5-C18 diacid) at 14; C-terminal OH) [Compound No. 128] | 7.24 nM
B5 | 95.5 nM
